Laboratory results as given in US20140128578A1.

How the values were obtained:
[1] = molecular target: IgG4 contained in cell-free eukaryotic culture supernatant (Experiment 1, test 1); assay: affinity precipitation; 0.13 µmol Z-dimer with 0.065 µmol IgG4 in culture supernatant, 2 h; antibody left in supernatant measured by SEC UV signal and protein A chromatography
[2] = molecular target: antibody in cell-free culture supernatant (Experiment 3); assay: affinity precipitation from cell-free culture supernatant; antibody to Z-dimer 1:2, 1 h; precipitate collected on a 0.22 µm filter
[3] = molecular target: IgG1 contained in cell-free eukaryotic culture supernatant (Experiment 1, test 2); assay: affinity precipitation; 16.25 nmol Z-dimer with 16.25 nmol IgG1 in culture supernatant, 2 h; antibody left in supernatant measured by SEC UV signal and protein A chromatography

- percent of antibody precipitated [1]: 99%
- total yield of the antibody after the precipitation [2]: 98%
- percent of antibody precipitated [3]: 76%
Substance: Z-dimer (dimerised protein Z; two Z-domain Cys tag monomers linked via a disulphide bridge) (designed binder)
